Patent publication US7183387 (Genentech, dated 2007)

T1: human FcγRIIA-R131 α subunit extracellular domain-His6-GST fusion (human, UniProt P12318 34-217)
T1 construct: ECD-6His-GST fusion made in 293 cells; also called FcγRIIA-Arg131; not shown: glutathione S transferase (GST)
T1 sequence: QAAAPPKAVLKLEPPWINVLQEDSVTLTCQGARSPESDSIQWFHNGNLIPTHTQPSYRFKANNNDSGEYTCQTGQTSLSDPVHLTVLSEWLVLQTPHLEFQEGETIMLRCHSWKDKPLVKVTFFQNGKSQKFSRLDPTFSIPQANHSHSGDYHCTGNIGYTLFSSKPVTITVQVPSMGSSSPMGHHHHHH


What was measured:
[1] = target: T1, human FcγRIIA-R131 α subunit …; assay: ELISA, IgG complex, receptor coated
[2] = target: T2, human FcγRIIIA-F158 α subunit extracellular domain-His6-GST fusion (human, UniProt P08637 17-208); assay: ELISA, IgG complex, receptor coated
T2 construct: ECD-6His-GST fusion made in 293 cells; also called FcγRIIIA-Phe158; not shown: glutathione S transferase (GST)

[3] = target: T3, human FcγRIIIA-V158 α subunit extracellular domain-His6-GST fusion (human, UniProt P08637 17-208); assay: ELISA, IgG monomer, receptor coated
T3 construct: ECD-6His-GST fusion made in 293 cells; also called FcγRIIIA-Val158; not shown: glutathione S transferase (GST)
T3 sequence (P08637 other isoform, or with tags, fused parts or gaps, form in doubt): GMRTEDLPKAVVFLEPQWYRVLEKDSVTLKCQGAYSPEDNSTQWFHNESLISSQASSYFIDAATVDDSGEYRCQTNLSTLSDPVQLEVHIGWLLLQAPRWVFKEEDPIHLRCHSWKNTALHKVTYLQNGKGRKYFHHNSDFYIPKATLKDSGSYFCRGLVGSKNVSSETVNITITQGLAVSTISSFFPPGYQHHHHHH

T2 sequence (P08637 other isoform, or with tags, fused parts or gaps, form in doubt): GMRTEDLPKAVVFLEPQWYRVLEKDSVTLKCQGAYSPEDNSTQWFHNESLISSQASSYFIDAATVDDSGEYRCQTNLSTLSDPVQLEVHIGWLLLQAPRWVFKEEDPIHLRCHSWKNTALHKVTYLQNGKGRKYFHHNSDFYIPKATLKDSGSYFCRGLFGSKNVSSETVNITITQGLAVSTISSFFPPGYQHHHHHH

Binder	ratio of binding, variant/native IgG1 (mean) [1]	ratio of binding, variant/native IgG1 (mean) [2]	ratio of binding, variant/native IgG1 (mean) [3]
anti-IgE E27 IgG1 variant E283(300)N (antibody, Fc variant of E27; also called IG2 228) heavy: not shown light: DIQLTQSPSSLSASVGDRVTITCRASKPVDGEGDSYLNWYQQKPGKAPKLLIYAASYLESGVPSRFSGSGSGTDFTLTISSLQPEDFATYYCQQSHEDPYTFGQGTKVEIKRTVAAPSVFIFPPSDEQLKSGTASVVCLLNNFYPREAKVQWKVDNALQSGNSQESVTEQDSKDSTYSLSSTLTLSKADYEKHKVYACEVTHQGLSSPVTKSFNRGEC	1.18 ratio	0.94 ratio	0.63 ratio
anti-IgE E27 IgG1 variant E283(300)S (antibody, Fc variant of E27; also called IG2 227) heavy: not shown light: DIQLTQSPSSLSASVGDRVTITCRASKPVDGEGDSYLNWYQQKPGKAPKLLIYAASYLESGVPSRFSGSGSGTDFTLTISSLQPEDFATYYCQQSHEDPYTFGQGTKVEIKRTVAAPSVFIFPPSDEQLKSGTASVVCLLNNFYPREAKVQWKVDNALQSGNSQESVTEQDSKDSTYSLSSTLTLSKADYEKHKVYACEVTHQGLSSPVTKSFNRGEC	1.03 ratio	0.85 ratio	0.83 ratio
anti-IgE E27 IgG1 variant E380(405)A/L309(328)A (antibody, Fc variant of E27; also called IG2 271; Glu380Ala/Leu309Ala) heavy: not shown light: DIQLTQSPSSLSASVGDRVTITCRASKPVDGEGDSYLNWYQQKPGKAPKLLIYAASYLESGVPSRFSGSGSGTDFTLTISSLQPEDFATYYCQQSHEDPYTFGQGTKVEIKRTVAAPSVFIFPPSDEQLKSGTASVVCLLNNFYPREAKVQWKVDNALQSGNSQESVTEQDSKDSTYSLSSTLTLSKADYEKHKVYACEVTHQGLSSPVTKSFNRGEC	0.98 ratio	0.92 ratio	1.1 ratio
anti-IgE E27 IgG1 variant P331(350)K (antibody, Fc variant of E27) heavy: not shown light: DIQLTQSPSSLSASVGDRVTITCRASKPVDGEGDSYLNWYQQKPGKAPKLLIYAASYLESGVPSRFSGSGSGTDFTLTISSLQPEDFATYYCQQSHEDPYTFGQGTKVEIKRTVAAPSVFIFPPSDEQLKSGTASVVCLLNNFYPREAKVQWKVDNALQSGNSQESVTEQDSKDSTYSLSSTLTLSKADYEKHKVYACEVTHQGLSSPVTKSFNRGEC	0.94 ratio	0.33 ratio	0.26 ratio
anti-IgE E27 IgG1 variant E294(311)A (antibody, Fc variant of E27; also called IG2 33) heavy: not shown light: DIQLTQSPSSLSASVGDRVTITCRASKPVDGEGDSYLNWYQQKPGKAPKLLIYAASYLESGVPSRFSGSGSGTDFTLTISSLQPEDFATYYCQQSHEDPYTFGQGTKVEIKRTVAAPSVFIFPPSDEQLKSGTASVVCLLNNFYPREAKVQWKVDNALQSGNSQESVTEQDSKDSTYSLSSTLTLSKADYEKHKVYACEVTHQGLSSPVTKSFNRGEC	0.87 ratio	0.66 ratio	0.68 ratio
anti-IgE E27 IgG1 variant P331(350)S (antibody, Fc variant of E27; also called IG2 198; Pro331Ser) heavy: not shown light: DIQLTQSPSSLSASVGDRVTITCRASKPVDGEGDSYLNWYQQKPGKAPKLLIYAASYLESGVPSRFSGSGSGTDFTLTISSLQPEDFATYYCQQSHEDPYTFGQGTKVEIKRTVAAPSVFIFPPSDEQLKSGTASVVCLLNNFYPREAKVQWKVDNALQSGNSQESVTEQDSKDSTYSLSSTLTLSKADYEKHKVYACEVTHQGLSSPVTKSFNRGEC	1 ratio	0.86 ratio	0.54 ratio
anti-IgE E27 IgG1 variant R292(309)K (antibody, Fc variant of E27; also called IG2 80) heavy: not shown light: DIQLTQSPSSLSASVGDRVTITCRASKPVDGEGDSYLNWYQQKPGKAPKLLIYAASYLESGVPSRFSGSGSGTDFTLTISSLQPEDFATYYCQQSHEDPYTFGQGTKVEIKRTVAAPSVFIFPPSDEQLKSGTASVVCLLNNFYPREAKVQWKVDNALQSGNSQESVTEQDSKDSTYSLSSTLTLSKADYEKHKVYACEVTHQGLSSPVTKSFNRGEC	0.71 ratio	1.15 ratio	1.64 ratio
anti-IgE E27 IgG1 variant R292(309)A (antibody, Fc variant of E27; also called IG2 31; G31) heavy: not shown light: DIQLTQSPSSLSASVGDRVTITCRASKPVDGEGDSYLNWYQQKPGKAPKLLIYAASYLESGVPSRFSGSGSGTDFTLTISSLQPEDFATYYCQQSHEDPYTFGQGTKVEIKRTVAAPSVFIFPPSDEQLKSGTASVVCLLNNFYPREAKVQWKVDNALQSGNSQESVTEQDSKDSTYSLSSTLTLSKADYEKHKVYACEVTHQGLSSPVTKSFNRGEC	0.27 ratio	0.9 ratio	0.94 ratio
anti-IgE E27 IgG1 variant E333(352)G (antibody, Fc variant of E27; also called IG2 178) heavy: not shown light: DIQLTQSPSSLSASVGDRVTITCRASKPVDGEGDSYLNWYQQKPGKAPKLLIYAASYLESGVPSRFSGSGSGTDFTLTISSLQPEDFATYYCQQSHEDPYTFGQGTKVEIKRTVAAPSVFIFPPSDEQLKSGTASVVCLLNNFYPREAKVQWKVDNALQSGNSQESVTEQDSKDSTYSLSSTLTLSKADYEKHKVYACEVTHQGLSSPVTKSFNRGEC	0.87 ratio	1.05 ratio	1.23 ratio
anti-IgE E27 IgG1 variant E294(311)D (antibody, Fc variant of E27; also called IG2 174) heavy: not shown light: DIQLTQSPSSLSASVGDRVTITCRASKPVDGEGDSYLNWYQQKPGKAPKLLIYAASYLESGVPSRFSGSGSGTDFTLTISSLQPEDFATYYCQQSHEDPYTFGQGTKVEIKRTVAAPSVFIFPPSDEQLKSGTASVVCLLNNFYPREAKVQWKVDNALQSGNSQESVTEQDSKDSTYSLSSTLTLSKADYEKHKVYACEVTHQGLSSPVTKSFNRGEC	0.37 ratio	0.14 ratio	0.26 ratio
anti-IgE E27 IgG1 variant K334(353)R (antibody, Fc variant of E27; also called Lys334Arg) heavy: not shown light: DIQLTQSPSSLSASVGDRVTITCRASKPVDGEGDSYLNWYQQKPGKAPKLLIYAASYLESGVPSRFSGSGSGTDFTLTISSLQPEDFATYYCQQSHEDPYTFGQGTKVEIKRTVAAPSVFIFPPSDEQLKSGTASVVCLLNNFYPREAKVQWKVDNALQSGNSQESVTEQDSKDSTYSLSSTLTLSKADYEKHKVYACEVTHQGLSSPVTKSFNRGEC	1.15 ratio	0.68 ratio	0.88 ratio
anti-IgE E27 IgG1 variant R292(309)H (antibody, Fc variant of E27; also called IG2 81) heavy: not shown light: DIQLTQSPSSLSASVGDRVTITCRASKPVDGEGDSYLNWYQQKPGKAPKLLIYAASYLESGVPSRFSGSGSGTDFTLTISSLQPEDFATYYCQQSHEDPYTFGQGTKVEIKRTVAAPSVFIFPPSDEQLKSGTASVVCLLNNFYPREAKVQWKVDNALQSGNSQESVTEQDSKDSTYSLSSTLTLSKADYEKHKVYACEVTHQGLSSPVTKSFNRGEC	0.21 ratio	0.92 ratio	1.21 ratio
anti-IgE E27 IgG1 variant P331(350)N (antibody, Fc variant of E27; also called IG2 199) heavy: not shown light: DIQLTQSPSSLSASVGDRVTITCRASKPVDGEGDSYLNWYQQKPGKAPKLLIYAASYLESGVPSRFSGSGSGTDFTLTISSLQPEDFATYYCQQSHEDPYTFGQGTKVEIKRTVAAPSVFIFPPSDEQLKSGTASVVCLLNNFYPREAKVQWKVDNALQSGNSQESVTEQDSKDSTYSLSSTLTLSKADYEKHKVYACEVTHQGLSSPVTKSFNRGEC	0.86 ratio	0.23 ratio	0.24 ratio
anti-IgE E27 IgG1 variant E294(311)Q (antibody, Fc variant of E27; also called IG2 173) heavy: not shown light: DIQLTQSPSSLSASVGDRVTITCRASKPVDGEGDSYLNWYQQKPGKAPKLLIYAASYLESGVPSRFSGSGSGTDFTLTISSLQPEDFATYYCQQSHEDPYTFGQGTKVEIKRTVAAPSVFIFPPSDEQLKSGTASVVCLLNNFYPREAKVQWKVDNALQSGNSQESVTEQDSKDSTYSLSSTLTLSKADYEKHKVYACEVTHQGLSSPVTKSFNRGEC	1.01 ratio	0.84 ratio	0.79 ratio
anti-IgE E27 IgG1 variant E283(300)Q (antibody, Fc variant of E27; also called IG2 226) heavy: not shown light: DIQLTQSPSSLSASVGDRVTITCRASKPVDGEGDSYLNWYQQKPGKAPKLLIYAASYLESGVPSRFSGSGSGTDFTLTISSLQPEDFATYYCQQSHEDPYTFGQGTKVEIKRTVAAPSVFIFPPSDEQLKSGTASVVCLLNNFYPREAKVQWKVDNALQSGNSQESVTEQDSKDSTYSLSSTLTLSKADYEKHKVYACEVTHQGLSSPVTKSFNRGEC	1.12 ratio	1.19 ratio	0.89 ratio
anti-IgE E27 IgG1 variant P331(350)E (antibody, Fc variant of E27; also called IG2 200) heavy: not shown light: DIQLTQSPSSLSASVGDRVTITCRASKPVDGEGDSYLNWYQQKPGKAPKLLIYAASYLESGVPSRFSGSGSGTDFTLTISSLQPEDFATYYCQQSHEDPYTFGQGTKVEIKRTVAAPSVFIFPPSDEQLKSGTASVVCLLNNFYPREAKVQWKVDNALQSGNSQESVTEQDSKDSTYSLSSTLTLSKADYEKHKVYACEVTHQGLSSPVTKSFNRGEC	1.06 ratio	0.42 ratio	0.36 ratio
